Assay results from paper PMC9352680, “A comprehensive thermodynamic model for RNA binding by the Saccharomyces cerevisiae Pumilio protein PUF4”.

T1: PUF4 RNA-binding domain (Saccharomyces cerevisiae, UniProt P25339 537-888)
T1 sequence: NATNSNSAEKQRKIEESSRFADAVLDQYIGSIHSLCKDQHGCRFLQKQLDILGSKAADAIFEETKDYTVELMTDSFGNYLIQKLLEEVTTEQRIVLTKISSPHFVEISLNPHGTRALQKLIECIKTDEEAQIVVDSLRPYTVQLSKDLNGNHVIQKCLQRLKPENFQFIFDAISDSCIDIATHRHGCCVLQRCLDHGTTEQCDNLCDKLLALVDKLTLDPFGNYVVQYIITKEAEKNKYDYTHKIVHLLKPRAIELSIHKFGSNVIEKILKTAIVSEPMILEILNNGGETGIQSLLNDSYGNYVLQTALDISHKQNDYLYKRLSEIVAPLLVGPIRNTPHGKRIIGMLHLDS


These binders were tested against T1, PUF4 RNA-binding domain (assay: Mg; RNA-MaP; 20 mM Na-HEPES pH 7.4, 30 mM KOAc, 0.75 mM MgCl2, 0.1% Tween-20, 5% glycerol, 0.1 mg/mL BSA, 2 mM DTT; 25 C; 0.0125-409.6 nM protein). Settings: tags: N-His6-TEV cleaved; C-SNAP kept, Cy3B-labelled; label: tethered on chip by stalled RNA polymerase.
Work on UCUCUUCGUGUAUAUUAAUUCUCUU (ssRNA) [Id_ii_S1_P4E.2_K4.1_C4.2_[T-1G]_H4.1_A4.1_F4.1_T4.2_[G10A]] yielded a Kd of 1.2 nM.
UCUCUUCCUGUAUAUUAUGUCUCUU (ssRNA) [Id_ii_S1_P4E.2_K4.1_C4.2_[T-1C]_H4.1_A4.1_F4.1_T4.2_[G10T]_[T11G]] showed a Kd of 1.01 nM.
UCUCUUCAUGUAUAUUAUCUCUCUU (ssRNA) [Id_ii_S1_P4E.2_K4.1_C4.2_[T-1A]_H4.1_A4.1_F4.1_T4.2_[G10T]_[T11C]] was tested, and the Kd was 0.967 nM.
UCUCUUGCUAUAUAUUACGUCUCUU (ssRNA) [Id_ii_S1_P4E.3_K4.2_C4.2_[C-2G]_[T-1C]_H4.2_A4.1_F4.1_T4.2_[G10C]_[T11G]] was tested, and the Kd was 56.3 nM.
Binder UCUCUUCAUGUAUAUUAAUUCUCUU (ssRNA) [Id_ii_S1_P4E.2_K4.1_C4.2_[T-1A]_H4.1_A4.1_F4.1_T4.2_[G10A]] has a Kd of 1.1 nM.
For UCUCUUAUUGUAUAUUAGCUCUCUU (ssRNA) [Id_ii_S1_P4E.2_K4.1_C4.2_[C-2A]_H4.1_A4.1_F4.1_T4.2_[T11C]], the Kd was 0.714 nM.
UCUCUUUGUCGAUUAUCUCUU (ssRNA) [Ib_S1_P4E.1_K4.1_C4.1_H4.1_[A4C]_A4.1_[T5G]_F4.1_T4.1] gave a Kd of 336 nM.
Work on UCUCUUGCUAUAUAUUACAUCUCUU (ssRNA) [Id_ii_S1_P4E.3_K4.2_C4.2_[C-2G]_[T-1C]_H4.2_A4.1_F4.1_T4.2_[G10C]_[T11A]] yielded a Kd of 44.4 nM.
For UCUCUUCUUGUAUAUUAACUCUCUU (ssRNA) [Id_ii_S1_P4E.2_K4.1_C4.2_H4.1_A4.1_F4.1_T4.2_[G10A]_[T11C]], the Kd was 0.862 nM.
For UCUCUUCCUGUAUAUUAACUCUCUU (ssRNA) [Id_ii_S1_P4E.2_K4.1_C4.2_[T-1C]_H4.1_A4.1_F4.1_T4.2_[G10A]_[T11C]], the Kd was 0.991 nM.
For UCUCUUCAUGUAUAUUAAGUCUCUU (ssRNA) [Id_ii_S1_P4E.2_K4.1_C4.2_[T-1A]_H4.1_A4.1_F4.1_T4.2_[G10A]_[T11G]], the Kd was 2.41 nM.
With UCUCUUCUUGUAUAUUACCUCUCUU (ssRNA) [Id_ii_S1_P4E.2_K4.1_C4.2_H4.1_A4.1_F4.1_T4.2_[G10C]_[T11C]] the Kd was 0.733 nM.
UCUCUUCCUGUAUAUUAUUUCUCUU (ssRNA) [Id_ii_S1_P4E.2_K4.1_C4.2_[T-1C]_H4.1_A4.1_F4.1_T4.2_[G10T]] showed a Kd of 0.724 nM.
UCUCUUGCUAUAUAUUAUGUCUCUU (ssRNA) [Id_ii_S1_P4E.3_K4.2_C4.2_[C-2G]_[T-1C]_H4.2_A4.1_F4.1_T4.2_[G10T]_[T11G]] was tested, and the Kd was 42 nM.
Binder UCUCUUCGUGUAUAUUAUCUCUCUU (ssRNA) [Id_ii_S1_P4E.2_K4.1_C4.2_[T-1G]_H4.1_A4.1_F4.1_T4.2_[G10T]_[T11C]] has a Kd of 0.874 nM.
UCUCUUCCUGUAUAUUACUUCUCUU (ssRNA) [Id_ii_S1_P4E.2_K4.1_C4.2_[T-1C]_H4.1_A4.1_F4.1_T4.2_[G10C]] showed a Kd of 0.91 nM.
Work on UCUCUUCAUGUAUAUUAGGUCUCUU (ssRNA) [Id_ii_S1_P4E.2_K4.1_C4.2_[T-1A]_H4.1_A4.1_F4.1_T4.2_[T11G]] yielded a Kd of 1.02 nM.
UCUCUUCGUGUAUAUUAUUUCUCUU (ssRNA) [Id_ii_S1_P4E.2_K4.1_C4.2_[T-1G]_H4.1_A4.1_F4.1_T4.2_[G10T]] was tested, and the Kd was 1.19 nM.
UCUCUUCAUGUAUAUUACCUCUCUU (ssRNA) [Id_ii_S1_P4E.2_K4.1_C4.2_[T-1A]_H4.1_A4.1_F4.1_T4.2_[G10C]_[T11C]] was tested, and the Kd was 0.916 nM.
Binder UCUCUUCGUGUAUAUUAGUUCUCUU (ssRNA) [Id_ii_S1_P4E.2_K4.1_C4.2_[T-1G]_H4.1_A4.1_F4.1_T4.2] has a Kd of 0.399 nM.
For UCUCUUCUUGUAUAUUACUUCUCUU (ssRNA) [Id_ii_S1_P4E.2_K4.1_C4.2_H4.1_A4.1_F4.1_T4.2_[G10C]], the Kd was 0.702 nM.
Binder UCUCUUUGCAUAGUAUCUCUU (ssRNA) [Ib_S1_P4E.1_K4.1_C4.1_H4.1_[T3C]_A4.1_[T7G]_F4.1_T4.1] has a Kd of 647 nM.
For UCUCUUCCUGUAUAUUAUAUCUCUU (ssRNA) [Id_ii_S1_P4E.2_K4.1_C4.2_[T-1C]_H4.1_A4.1_F4.1_T4.2_[G10T]_[T11A]], the Kd was 0.96 nM.
Binder UCUCUUCCUGUAUAUUAAUUCUCUU (ssRNA) [Id_ii_S1_P4E.2_K4.1_C4.2_[T-1C]_H4.1_A4.1_F4.1_T4.2_[G10A]] has a Kd of 0.693 nM.
UCUCUUCCUGUAUAUUAGUUCUCUU (ssRNA) [Id_ii_S1_P4E.2_K4.1_C4.2_[T-1C]_H4.1_A4.1_F4.1_T4.2] was tested, and the Kd was 0.262 nM.
Binder UCUCUUUGCAUACUAUCUCUU (ssRNA) [Ib_S1_P4E.1_K4.1_C4.1_H4.1_[T3C]_A4.1_[T7C]_F4.1_T4.1] has a Kd of 117 nM.
Work on UCUCUUCGUGUAUAUUAGGUCUCUU (ssRNA) [Id_ii_S1_P4E.2_K4.1_C4.2_[T-1G]_H4.1_A4.1_F4.1_T4.2_[T11G]] yielded a Kd of 0.943 nM.
Work on UCUCUUCCUGUAUAUUAAGUCUCUU (ssRNA) [Id_ii_S1_P4E.2_K4.1_C4.2_[T-1C]_H4.1_A4.1_F4.1_T4.2_[G10A]_[T11G]] yielded a Kd of 1.9 nM.
Work on UCUCUUCUUGUAUAUUAUGUCUCUU (ssRNA) [Id_ii_S1_P4E.2_K4.1_C4.2_H4.1_A4.1_F4.1_T4.2_[G10T]_[T11G]] yielded a Kd of 0.808 nM.
In the case of UCUCUUCUUGUAUAUUAUAUCUCUU (ssRNA) [Ie_S1_P3E.2_K3.1_C3.2_H3.1_A3.1_[+6T]_F3.1_T3.2], the Kd is reported as 0.724 nM.
Work on UCUCUUCUUGUAUAUUAAUUCUCUU (ssRNA) [Id_ii_S1_P4E.2_K4.1_C4.2_H4.1_A4.1_F4.1_T4.2_[G10A]] yielded a Kd of 0.76 nM.
UCUCUUCAUGUAUAUUAGCUCUCUU (ssRNA) [Id_ii_S1_P4E.2_K4.1_C4.2_[T-1A]_H4.1_A4.1_F4.1_T4.2_[T11C]] was tested, and the Kd was 0.425 nM.
UCUCUUGCUAUAUAUUACUUCUCUU (ssRNA) [Id_ii_S1_P4E.3_K4.2_C4.2_[C-2G]_[T-1C]_H4.2_A4.1_F4.1_T4.2_[G10C]] was tested, and the Kd was 30.6 nM.
UCUCUUCAUGUAUAUUACUUCUCUU (ssRNA) [Id_ii_S1_P4E.2_K4.1_C4.2_[T-1A]_H4.1_A4.1_F4.1_T4.2_[G10C]] showed a Kd of 1.07 nM.
UCUCUUCUUGUAUAUUAGUUCUCUU (ssRNA) [If_S1_P4E.2_K4.1_C4.2_H4.1_A4.1_F4.1_T4.2] showed a Kd of 0.286 nM.
In the case of UCUCUUCUUGUAUAUUAAAUCUCUU (ssRNA) [Id_ii_S1_P4E.2_K4.1_C4.2_H4.1_A4.1_F4.1_T4.2_[G10A]_[T11A]], the Kd is reported as 0.971 nM.
In the case of UCUCUUCUUGUAUAUUAUUUCUCUU (ssRNA) [Id_ii_S1_P4E.2_K4.1_C4.2_H4.1_A4.1_F4.1_T4.2_[G10T]], the Kd is reported as 0.541 nM.
UCUCUUCAUGUAUAUUAGUUCUCUU (ssRNA) [Id_ii_S1_P4E.2_K4.1_C4.2_[T-1A]_H4.1_A4.1_F4.1_T4.2] gave a Kd of 0.326 nM.
Binder UCUCUUCAUGUAUAUUAUUUCUCUU (ssRNA) [Id_ii_S1_P4E.2_K4.1_C4.2_[T-1A]_H4.1_A4.1_F4.1_T4.2_[G10T]] has a Kd of 0.915 nM.
UCUCUUGCUAUAUAUUACCUCUCUU (ssRNA) [Id_ii_S1_P4E.3_K4.2_C4.2_[C-2G]_[T-1C]_H4.2_A4.1_F4.1_T4.2_[G10C]_[T11C]] was tested, and the Kd was 61.4 nM.
UCUCUUCCUGUAUAUUAAAUCUCUU (ssRNA) [Id_ii_S1_P4E.2_K4.1_C4.2_[T-1C]_H4.1_A4.1_F4.1_T4.2_[G10A]_[T11A]] showed a Kd of 1.26 nM.
Work on UCUCUUCAUGUAUAUUAACUCUCUU (ssRNA) [Id_ii_S1_P4E.2_K4.1_C4.2_[T-1A]_H4.1_A4.1_F4.1_T4.2_[G10A]_[T11C]] yielded a Kd of 1.15 nM.
UCUCUUAUUGUAUAUUAAUUCUCUU (ssRNA) [Id_ii_S1_P4E.2_K4.1_C4.2_[C-2A]_H4.1_A4.1_F4.1_T4.2_[G10A]] gave a Kd of 1.16 nM.
Work on UCUCUUCUUGUAUAUUAGCUCUCUU (ssRNA) [Id_ii_S1_P4E.2_K4.1_C4.2_H4.1_A4.1_F4.1_T4.2_[T11C]] yielded a Kd of 0.287 nM.
UCUCUUCCUGUAUAUUAUCUCUCUU (ssRNA) [Id_ii_S1_P4E.2_K4.1_C4.2_[T-1C]_H4.1_A4.1_F4.1_T4.2_[G10T]_[T11C]] showed a Kd of 0.601 nM.
UCUCUUCGUGUAUAUUAAGUCUCUU (ssRNA) [Id_ii_S1_P4E.2_K4.1_C4.2_[T-1G]_H4.1_A4.1_F4.1_T4.2_[G10A]_[T11G]] gave a Kd of 3.06 nM.
Work on UCUCUUCAUGUAUAUUAAAUCUCUU (ssRNA) [Id_ii_S1_P4E.2_K4.1_C4.2_[T-1A]_H4.1_A4.1_F4.1_T4.2_[G10A]_[T11A]] yielded a Kd of 1.57 nM.
For UCUCUUUGUCCAUUAUCUCUU (ssRNA) [Ib_S1_P4E.1_K4.1_C4.1_H4.1_[A4C]_A4.1_[T5C]_F4.1_T4.1], the Kd was 20.5 nM.
UCUCUUAUUGUAUAUUAGUUCUCUU (ssRNA) [Id_ii_S1_P4E.2_K4.1_C4.2_[C-2A]_H4.1_A4.1_F4.1_T4.2] showed a Kd of 0.431 nM.
